Measured values from patent publication US20070160605A1 (RINAT NEUROSCIENCE, published 2007).
Several values for one entry are separate records, joined by “and”; a condition that tells them apart may be missing. Identical values can stand only once.

Biological target: T1, human NGF (human, UniProt P01138 122-241, limits assumed)
T1 construct: also called hNGF; human nerve growth factor
Assay: binding affinity, method not stated

T1 sequence (P01138 122-241 limits assumed): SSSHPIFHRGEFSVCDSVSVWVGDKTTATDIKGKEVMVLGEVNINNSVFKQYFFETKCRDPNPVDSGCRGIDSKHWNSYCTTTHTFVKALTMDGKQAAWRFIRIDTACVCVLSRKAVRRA

B1: humanized anti-NGF antibody E3 (antibody, V domains shown)
VH: QVQLQESGPGLVKPSETLSLTCTVSGFSLIGYDLNWIRQPPGKGLEWIGIIWGDGTTDYNSAVKSRVTISKDTSKNQFSLKLSSVTAADTAVYYCARGGYWYATSYYFDYWGQGTLVTVS
VL: DIQMTQSPSSLSASVGDRVTITCRASQSISNNLNWYQQKPGKAPKLLIYYTSRFHSGVPSRFSGSGSGTDFTFTISSLQPEDIATYYCQQEHTLPYTFGQGTKLEIK
With B1 the Kd was ~0.07 nM and ~0.1 nM.
